{
  "source": "patent US20090041744A1",
  "about": "(published 2009)",
  "binders": {"B1": {"name": "sTF (1-219) Glu219→Cys (E219C), biotinylated (receptor)", "chain": "SGTTNTVAAYNLTWKSTNFKTILEWEPKPVNQVYTVQISTKSGDWKSKCFYTTDTECDLTDEIVKDVKQTYLARVFSYPAGNVESTGSAGEPLYENSPEFTPYLETNLGQPTIQSFEQVGTKVNVTVEDERTLVRRNNTFLSLRDVFGKDLIYTLYYWKSSSSGKKTAKTNTNEFLIDVDKGENYCFSVQAVIPSRTVNRKSTDSPVECMGQEKGEFRC", "modifications": "Cys219 alkylated with biotin-PEO-iodoacetamide (biotinylated at its free cysteine) ; chain 1 pos 219: Cys alkylated with biotin-PEO-iodoacetamide (biotinylated at its free cysteine), written C. It was captured through this biotin on a streptavidin (SA) sensor chip.", "notes": "Immobilized on a streptavidin (SA) sensor chip at 2.2 fmol/mm^2 (~50 RU); also called sTF E219C; biotinylated sTF E19C"}},
  "key": {"FVIIa 407C [1]": {"molecular_target": "T1, FVIIa 407C (human, UniProt P08709 61-212; P08709 213-466, N-glycosylated Asn322; engineered Cys407 is largely in mixed disulfides with glutathione, cysteine and homocysteine in the untreated preparation; whether the SPR sample was selectively reduced is not …)", "T1 construct": "range 1-152;range 153-406; Recombinant, expressed in BHK cells; DNA construct as described in WO 02/077218 A1; Light and heavy chain are joined by a disulfide bond; also called Factor VIIa 407C; FVII 407C", "T1 sequence (light)": "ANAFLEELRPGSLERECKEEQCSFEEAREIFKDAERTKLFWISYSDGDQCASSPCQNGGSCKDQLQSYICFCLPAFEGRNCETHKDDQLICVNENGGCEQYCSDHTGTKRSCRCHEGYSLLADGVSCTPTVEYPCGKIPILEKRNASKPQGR", "T1 sequence (heavy)": "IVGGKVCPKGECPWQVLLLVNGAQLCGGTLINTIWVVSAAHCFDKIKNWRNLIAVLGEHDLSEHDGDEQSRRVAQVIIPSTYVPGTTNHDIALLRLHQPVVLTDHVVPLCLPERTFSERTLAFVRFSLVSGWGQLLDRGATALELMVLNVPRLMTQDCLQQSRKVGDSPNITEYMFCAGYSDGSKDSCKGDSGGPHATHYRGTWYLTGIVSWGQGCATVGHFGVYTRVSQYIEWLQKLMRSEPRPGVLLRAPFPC", "assay": "SPR (Biacore 3000), biotinylated sTF E219C on SA chip, FVIIa as analyte; KD calculated from kon and koff", "protocol": "(§1) Surface plasmon resonance (SPR) analysis of the binding of FVIIa 407C, FVIIa 407C-PEG3.4 k-FVIIa 407C, and FVIIa 407C-PEG20k-FVIIa 407C to immobilized soluble tissue factor—Binding of FVIIa 407C and PEGylated variants to immobilized soluble tissue factor was analyzed by surface plasmon resonance analysis on a Biacore 3000 instrument (Biacore AB, Uppsala, Sweden). Prior to immobilization, sTF E219C was biotinylated at its free cysteine by reacting the protein with 2 mM biotin-PEO-iodoacetamide at pH 7.0 for 20 min. Excess reagent was subsequently removed by gelfiltration on a NAP™5 column (Amersham Biosciences AB, Uppsala, Sweden) equilibrated in HBS-P buffer (10 mM HEPES, 150 mM NaCl, 0.005% P20; Biacore AB, Uppsala, Sweden) containing 5 mM CaCl₂. Biotinylated sTF E19C was immobilized at a density of 2.2 fmol/mm² (˜50 RU) in flow cell 2 of a SA sensor chip (Biacore AB, Uppsala, Sweden). Kinetic analysis was performed at a flow rate of 30 μl/min in running buffer (HBS-P buffer containing 5 mM CaCl₂) using the untreated flow cell 1 for automatic in-line reference subtraction. Serial dilutions of protein from 100 nM to approx. 5 nM were analyzed. Following 3 min equilibration of the flow cells in running buffer, 90 μl protein sample was injected using the KINJECT command. The dissociation phase lasted 9 min and regeneration was performed with a 3-min pulse of 20 mM EDTA in HBS-P buffer. […]"}, "[2]": {"molecular_target": "T2, FVIIa 407C-PEG20k-FVIIa 407C (human, UniProt P08709 61-212; P08709 213-466, N-glycosylated Asn322; Cys407 of the two protomers cross-linked through maleimide-PEG20k-maleimide; 10 gamma-carboxylated glutamic acid (GLA) residues; O-glycosylated Ser52 and Ser60; N-glycosylated …)", "T2 construct": "range 1-152;range 153-406", "T2 sequence (light)": "T1 sequence (light)", "T2 sequence (heavy)": "T1 sequence (heavy)", "assay": "SPR (Biacore 3000), biotinylated sTF E219C on SA chip, FVIIa dimer as analyte; KD calculated from kon and koff", "protocol": "as §1"}, "[3]": {"molecular_target": "T3, FVIIa 407C-PEG3.4k-FVIIa 407C (human, UniProt P08709 61-212; P08709 213-466, N-glycosylated Asn322; Cys407 of the two protomers cross-linked through maleimide-PEG3.4k-maleimide; 10 gamma-carboxylated glutamic acid (GLA) residues; O-glycosylated Ser52 and Ser60; N-glycosylated …)", "T3 construct": "range 1-152;range 153-406", "T3 sequence (light)": "T1 sequence (light)", "T3 sequence (heavy)": "T1 sequence (heavy)", "assay": "SPR (Biacore 3000), biotinylated sTF E219C on SA chip, FVIIa dimer as analyte; KD calculated from kon and koff", "protocol": "as §1"}, "FVIIa 407C [4]": {"molecular_target": "T1, FVIIa 407C", "assay": "SPR (Biacore 3000), biotinylated sTF E219C on SA chip, FVIIa as analyte, 5 mM CaCl2, 1:1 Langmuir fit", "protocol": "as §1"}, "[5]": {"molecular_target": "T2, FVIIa 407C-PEG20k-FVIIa 407C", "assay": "SPR (Biacore 3000), biotinylated sTF E219C on SA chip, FVIIa dimer as analyte, 5 mM CaCl2, 1:1 Langmuir fit", "protocol": "(§2) Surface plasmon resonance (SPR) analysis of the binding of FVIIa 407C, FVIIa 407C-PEG3.4 k-FVIIa 407C, and FVIIa 407C-PEG20k-FVIIa 407C to immobilized soluble tissue factor—Binding of FVIIa 407C and PEGylated variants to immobilized soluble tissue factor was analyzed by surface plasmon resonance analysis on a Biacore 3000 instrument (Biacore AB, Uppsala, Sweden). Prior to immobilization, sTF E219C was biotinylated at its free cysteine by reacting the protein with 2 mM biotin-PEO-iodoacetamide at pH 7.0 for 20 min. Excess reagent was subsequently removed by gelfiltration on a NAP™5 column (Amersham Biosciences AB, Uppsala, Sweden) equilibrated in HBS-P buffer (10 mM HEPES, 150 mM NaCl, 0.005% P20; Biacore AB, Uppsala, Sweden) containing 5 mM CaCl₂. Biotinylated sTF E19C was immobilized at a density of 2.2 fmol/mm² (˜50 RU) in flow cell 2 of a SA sensor chip (Biacore AB, Uppsala, Sweden). Kinetic analysis was performed at a flow rate of 30 μl/min in running buffer (HBS-P buffer containing 5 mM CaCl₂) using the untreated flow cell 1 for automatic in-line reference subtraction. Serial dilutions of protein from 100 nM to approx. 5 nM were analyzed. Following 3 min equilibration of the flow cells in running buffer, 90 μl protein sample was injected using the KINJECT command. The dissociation phase lasted 9 min and regeneration was performed with a 3-min pulse of 20 mM EDTA in HBS-P buffer. SPR data were fitted to a 1:1 Langmuir binding model using BIAevaluation 4.1 software (Biacore AB, Uppsala, Sweden)."}, "[6]": {"molecular_target": "T3, FVIIa 407C-PEG3.4k-FVIIa 407C", "assay": "SPR (Biacore 3000), biotinylated sTF E219C on SA chip, FVIIa dimer as analyte, 5 mM CaCl2, 1:1 Langmuir fit", "protocol": "as §2"}},
  "data": [
    {"binder": "B1", "values": [
      {"measurement": "Kd", "setting": "FVIIa 407C [1]", "value": 5.5, "unit": "nM"},
      {"measurement": "Kd", "setting": "[2]", "value": 0.5, "unit": "nM"},
      {"measurement": "Kd", "setting": "[3]", "value": 0.4, "unit": "nM"},
      {"measurement": "koff", "setting": "FVIIa 407C [4]", "value": 0.0015, "unit": "s⁻¹"},
      {"measurement": "kon", "setting": "FVIIa 407C [4]", "value": 280000, "unit": "M⁻¹ s⁻¹"},
      {"measurement": "koff", "setting": "[5]", "value": 0.00016, "unit": "s⁻¹"},
      {"measurement": "kon", "setting": "[5]", "value": 310000, "unit": "M⁻¹ s⁻¹"},
      {"measurement": "koff", "setting": "[6]", "value": 0.00015, "unit": "s⁻¹"},
      {"measurement": "kon", "setting": "[6]", "value": 350000, "unit": "M⁻¹ s⁻¹"}
    ]}
  ]
}
